Laboratory results taken from PMC8921914.

Tests used:
FcRn = FcRn (UniProt P55899); assay: SPR
FcγRI = FcγRI (UniProt P12314); assay: SPR
Chain of UniProt P12314 (P12314 16-374): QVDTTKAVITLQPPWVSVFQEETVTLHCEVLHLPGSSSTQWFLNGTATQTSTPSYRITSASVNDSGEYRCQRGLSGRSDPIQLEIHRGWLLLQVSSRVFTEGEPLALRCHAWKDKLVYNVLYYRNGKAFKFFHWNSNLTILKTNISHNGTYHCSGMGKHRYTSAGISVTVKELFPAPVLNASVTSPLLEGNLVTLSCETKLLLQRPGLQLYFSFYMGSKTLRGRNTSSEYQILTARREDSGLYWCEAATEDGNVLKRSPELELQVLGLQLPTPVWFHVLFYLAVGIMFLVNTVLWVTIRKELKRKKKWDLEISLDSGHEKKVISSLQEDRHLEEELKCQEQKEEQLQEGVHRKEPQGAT

Chain of UniProt P55899 (P55899 whole entry, looked up, tested part not stated): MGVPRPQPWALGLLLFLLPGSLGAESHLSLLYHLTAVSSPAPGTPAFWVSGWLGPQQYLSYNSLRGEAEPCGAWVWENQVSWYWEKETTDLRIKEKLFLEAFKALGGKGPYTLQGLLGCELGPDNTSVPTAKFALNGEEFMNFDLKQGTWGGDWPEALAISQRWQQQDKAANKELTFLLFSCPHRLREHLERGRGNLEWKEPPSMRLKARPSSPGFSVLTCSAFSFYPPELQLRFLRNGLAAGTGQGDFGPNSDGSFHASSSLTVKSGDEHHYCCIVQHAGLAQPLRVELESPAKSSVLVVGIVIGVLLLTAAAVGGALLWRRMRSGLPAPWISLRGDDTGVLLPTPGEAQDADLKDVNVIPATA

CLN-049 (bispecific antibody)
Kd (FcRn): > 1000 µM | Kd (FcγRI): > 1000 µM
